The values that follow come from paper PMC12720783 (Protein Science : A Publication of the Protein Society, 2025).

To fix the notation:
B1: LcrV with a deletion of the N-terminal domain (domain or fragment)
chain: SKLREELAELTAELKIYSVIQAEINKHLSSGGTINIHDKSINLMDKNLYGYTDEEIFKASAEYKILEKMPQTTIQEGETEKKIVSIKNFLESEKKRTGALGNLKDSYSYNKDNNELSHFATTCSDKSRPLNDLVSQKTTQLSDITSRFNSAIEALNRFIQKYDSVMQRLLDDTSGK

Series [1] concerns the molecule itself. In words: […]; 50 mM NaCl, 30 mM phosphate buffer, 1 mM TCEP.
The target in the next series is LcrV, full length (Yersinia pseudotuberculosis, UniProt P23994 1-326). In words: ITC. As to conditions: both partners purified.
Series [2] deals with LcrV with a deletion of the N-terminal 23 residues (Yersinia pseudotuberculosis, UniProt P23994 24-326). Briefly: ITC; […] ([…]) […] ([…]) […]; 25°C; 30 mM phosphate buffer, 50 mM NaCl, 1 mM TCEP, pH 7.0. As to conditions: both partners purified. Background: ITC needs no label: the signal is the heat of the interaction.
The target in series [3] is B1. Described as above. As to conditions: both partners purified.

By stoichiometry N is commonly meant a count of units in the complex or per binding partner. B1: the “stoichiometry N” value in series [1] turned out to be 3.

B2: LcrG, full length (natural protein)
chain: MKSSHFDEYDKTLKQAELAIADSDHRAKLLQEMCADIGLTPEAVMKIFAGRSAEEIKPAERELLDEIKRQRERQPQHPYDGKRPRKPTMMRGQII
One may read the Kd as the constant that tells how readily two partners part at equilibrium. Higher therefore signals lower affinity. On to B2, for which the Kd with LcrV, full length is 0.127 ± 0.063 µM; in series [2], 0.054 ± 0.0088 µM; in series [3], at most 0.01 µM.
